{
  "source": "paper PMC7612376",
  "about": "“Structural basis of meiotic chromosome synaptic elongation through hierarchical fibrous assembly of SYCE2-TEX12” (Nature structural & molecular biology, 2021)",
  "binders": {"B1": {"name": "TEX12 core (amino-acids 49-123) (domain or fragment, human, UniProt Q9BXU0 49-123, looked up)", "chain": "KDEALEKDLNDVSKEINLMLSTYAKLLSERAAVDASYIDEIDELFKEANAIENFLIQKREFLRQRFTVIANTLHR", "notes": "TEX12, human, core, residues 49-123; also called TEX12 structural core; source: E. coli BL21 (DE3), co-expressed with SYCE2, purified (Ni-NTA, amylose, ion exchange, SEC); not shown: His6, N-terminal, cleaved"}},
  "assay_in_all_cases": "SEC-MALS; co-purified complexes at >1 mg/ml on Superdex 200 Increase 10/300 GL in 20 mM Tris pH 8.0, 150 mM KCl, 2 mM DTT; in Fig. 1 core at 200 uM and full-length at 100 uM (4 mg/ml)",
  "conditions_in_all_cases": "both partners purified",
  "key": {"[1]": {"target": "T1, SYCE2 core ΔS2C (amino-acids 57-154) (human, UniProt Q6PIF2 57-154)", "T1 construct": "SYCE2, human, ΔS2C, residues 57-154; source: E. coli BL21 (DE3), co-expressed with TEX12, purified (Ni-NTA, amylose, ion exchange, SEC); not shown: MBP, N-terminal, cleaved", "T1 sequence (looked up)": "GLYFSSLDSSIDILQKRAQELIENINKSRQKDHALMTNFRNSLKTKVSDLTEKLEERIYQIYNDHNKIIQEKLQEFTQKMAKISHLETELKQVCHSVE"}, "[2]": {"target": "T2, SYCE2 core (amino-acids 57-165) (human, UniProt Q6PIF2 57-165)", "T2 construct": "SYCE2, human, core, residues 57-165; also called SYCE2 structural core; source: E. coli BL21 (DE3), co-expressed with TEX12, purified (Ni-NTA, amylose, ion exchange, SEC); not shown: MBP, N-terminal, cleaved", "T2 sequence (looked up)": "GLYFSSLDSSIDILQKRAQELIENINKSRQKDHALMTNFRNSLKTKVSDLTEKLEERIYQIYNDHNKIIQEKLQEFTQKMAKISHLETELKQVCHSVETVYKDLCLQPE"}, "SYCE2 core H89E Y115E": {"target": "T3, SYCE2 core H89E Y115E (human, UniProt Q6PIF2 57-165, H89E | Y115E)", "T3 construct": "SYCE2, human, core, residues 57-165, with H89E and Y115E; source: E. coli BL21 (DE3), co-expressed with TEX12, purified (Ni-NTA, amylose, ion exchange, SEC); not shown: MBP, N-terminal, cleaved", "T3 sequence (looked up)": "T2 sequence (looked up) with H33E, Y59E"}, "[3]": {"target": "T4, SYCE2 core V149E V153E V156E L160E (human, UniProt Q6PIF2 57-165, V149E | V153E | V156E | L160E)", "T4 construct": "SYCE2, human, core, residues 57-165, with V149E, V153E, V156E and L160E; The four mutations are read as combined in one construct (one mass is printed for it); also called V149E, V153E, V156E and L160E mutant; S2C hydrophobic core mutant; source: E. coli BL21 (DE3), co-expressed with TEX12, purified (Ni-NTA, amylose, ion exchange, SEC); not shown: MBP, N-terminal, cleaved", "T4 sequence (looked up)": "T2 sequence (looked up) with V93E, V97E, V100E, L104E"}},
  "note": "Changes are numbered by the printed parent chain.",
  "data": [
    {"binder": "B1", "values": [
      {"measurement": "stoichiometry N", "setting": "[1]", "value": "1 TEX12 per SYCE2 (2:2)"},
      {"measurement": "stoichiometry N", "setting": "[2]", "value": "1 TEX12 per SYCE2 (4:4)"},
      {"measurement": "stoichiometry N", "setting": "SYCE2 core H89E Y115E", "value": "1 TEX12 per SYCE2 (2:2)"},
      {"measurement": "stoichiometry N", "setting": "[3]", "value": "1 TEX12 per SYCE2 (2:2)"}
    ]}
  ]
}
